Data on 1 substance can be found in publication PMC10425842.

Assay [1] has as its target UBR5^ΔSBB2 (UBR5 mutant with an SBB2 domain deletion) (human) (UniProt O95071). Put plainly: cryo-EM 2D classification.
Assay [2] shares this target. Put plainly: mass photometry.

Turning to “UBR5^ΔSBB2 (UBR5 mutant with an SBB2 domain deletion) (from UniProt O95071 1-2799) (enzyme)”, the stoichiometry N in assay [1] and in assay [2] was 2 each time.

For orientation: stoichiometry N means the number of molecules, sites or subunits per partner or assembly.
